Experimental data taken from publication PMC13364712.

Target: actin filaments (actin from Gallus gallus skeletal muscle) (Gallus gallus (chicken)) (UniProt P68139)
Test: co-sedimentation; 4 µM EGFP–SFM peptide with 0–200 µM actin filaments in F buffer, 1 h at room temperature, 100,000g for 30 min; pellet read by anti-EGFP western blot; one-site specific binding fit; apparent

Substance | Kd [µM]
EGFP-tagged USP54 SFM peptide, wild type | 6
EGFP–Lifeact (peptide) | 2
